# ± gives the standard error. This sample holds only a part of the variants without activity.
# B1: glmS ribozyme (parent)
# chain: AUAAAAGCGCCAGAACUACAGAAAUGUAGUUGACGAGGAGGAGGUUUAUCGAAUUUUCGGCGGAUGCCUCCAAA
# Columns and labels:
# Conditions in all cases: with glucosamine-6-phosphate
# [1] = variants of: B1; test: self-cleavage kobs at 40 uM GlcN6P; higher = faster cleavage; RNA array
# Procedure, shortened: (§1)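 Tracking of barcoded ribozyme variants used a hybridised Cy3 probe at 37 °C, after in situ transcription by E. coli RNA polymerase on sequenced MiSeq chips. The flowed solution held 40 μM to 10 mM glucosamine-6-phosphate in HEPES/KCl/Mg(OAc)2 buffer, and imaging ran over ~14 h. kobs was taken from exponential decay fits of normalised per-tile medians, and kcat and KM from weighted Michaelis–Menten fits.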
# [2] = variants of: B1; test: self-cleavage kobs at 640 uM GlcN6P; higher = faster cleavage; RNA array
# Procedure, shortened: as §1
# [3] = variants of: B1; test: self-cleavage kobs at 2500 uM GlcN6P; higher = faster cleavage; RNA array
# Procedure, shortened: as §1
# [4] = variants of: B1; test: self-cleavage kobs at 10000 uM GlcN6P; higher = faster cleavage; RNA array
# Procedure, shortened: as §1
# [5] = variants of: B1; test: self-cleavage kobs at 160 uM GlcN6P; higher = faster cleavage; RNA array
# Procedure, shortened: as §1
Variant,self-cleavage kobs at 40 uM GlcN6P [1] [s⁻¹],self-cleavage kobs at 640 uM GlcN6P [2] [s⁻¹],self-cleavage kobs at 2500 uM GlcN6P [3] [s⁻¹],self-cleavage kobs at 10000 uM GlcN6P [4] [s⁻¹],self-cleavage kobs at 160 uM GlcN6P [5] [s⁻¹]
G9U G43U,< 1e-05,< 1e-05,< 1e-05,< 1e-05,–
G9A A14C A48C,< 1e-05,–,–,–,–
A36U A39U C50U C61G U65A,< 1e-05,–,–,< 1e-05,–
G7C U31C G43C C50U,< 1e-05,< 1e-05,–,< 1e-05,< 1e-05
G7U U31G G62A,< 1e-05,–,< 1e-05,< 1e-05,–
G13A A36G G44U A53U,< 1e-05,–,< 1e-05,< 1e-05,–
G62A C67U,< 1e-05,–,< 1e-05,< 1e-05,–
U46G G51U,< 1e-05,< 1e-05,< 1e-05,< 1e-05,< 1e-05
U31A A36G A52C,< 1e-05,–,–,< 1e-05,–
C8U A15G G35U C67U,< 1e-05,–,–,–,–
G29C U49A,< 1e-05,–,–,< 1e-05,–
U69G,0.000371 ± 0.00012,0.000488 ± 0.00012,0.00011 ± 4.1e-05,0.000467 ± 7.8e-05,5.87e-05 ± 2.4e-06
G44U C50G A53U G59A C68A,< 1e-05,–,–,–,–
A48U C50A G66U,< 1e-05,–,–,–,–
G40C A48C A52U,< 1e-05,< 1e-05,< 1e-05,–,–
C8G U30A U31C,< 1e-05,–,–,< 1e-05,–
A53C C61G,< 1e-05,< 1e-05,–,< 1e-05,–
C16U C34G U57A G62U,< 1e-05,–,–,< 1e-05,–
G41U U46G G59C,< 1e-05,< 1e-05,< 1e-05,< 1e-05,–
G29U U45A C61A,< 1e-05,–,–,–,–
G9A C16G G63A A64G,< 1e-05,< 1e-05,< 1e-05,–,< 1e-05
A15G U45A,0.00128 ± 0.00026,0.025 ± 0.0066,0.046 ± 0.019,0.098 ± 0.043,0.00318 ± 0.0012
G38U A42C A53U,< 1e-05,–,–,–,–
A6G C16G G29C A39G G43C U47G G51U C61A,< 1e-05,–,–,< 1e-05,–

# — the supplement of paper PMC7125110
